First the molecules themselves.
B1: PP21 (peptide)
peptide: XNSWYKIWGLD
HELM: PEPTIDE1{[meA].N.S.W.Y.K.I.W.G.L.D.[C1CCN([*:1])C1]}$PEPTIDE1,PEPTIDE1,1:R1-11:R3$$$V2.0
SMILES: CC[C@H](C)[C@@H]1NC(=O)[C@H](CCCCN)NC(=O)[C@H](Cc2ccc(O)cc2)NC(=O)[C@H](Cc2c[nH]c3ccccc23)NC(=O)[C@H](CO)NC(=O)[C@H](CC(N)=O)NC(=O)[C@H](C)N(C)C(=O)C[C@@H](C(=O)N2CCCC2)NC(=O)[C@H](CC(C)C)NC(=O)CNC(=O)[C@H](Cc2c[nH]c3ccccc23)NC1=O
B2: PP22 (peptide)
peptide: XNSWYRIWGLD
HELM: PEPTIDE1{[meA].N.S.W.Y.R.I.W.G.L.D.[C1CCN([*:1])C1]}$PEPTIDE1,PEPTIDE1,1:R1-11:R3$$$V2.0
SMILES: CC[C@H](C)[C@@H]1NC(=O)[C@H](CCCNC(=N)N)NC(=O)[C@H](Cc2ccc(O)cc2)NC(=O)[C@H](Cc2c[nH]c3ccccc23)NC(=O)[C@H](CO)NC(=O)[C@H](CC(N)=O)NC(=O)[C@H](C)N(C)C(=O)C[C@@H](C(=O)N2CCCC2)NC(=O)[C@H](CC(C)C)NC(=O)CNC(=O)[C@H](Cc2c[nH]c3ccccc23)NC1=O
B3: PP19 (peptide)
peptide: XVFYKIWYNWD
HELM: PEPTIDE1{[meA].V.F.Y.K.I.W.Y.N.W.D.[C1CCN([*:1])C1]}$PEPTIDE1,PEPTIDE1,1:R1-11:R3$$$V2.0
SMILES: CC[C@H](C)[C@@H]1NC(=O)[C@H](CCCCN)NC(=O)[C@H](Cc2ccc(O)cc2)NC(=O)[C@H](Cc2ccccc2)NC(=O)[C@H](C(C)C)NC(=O)[C@H](C)N(C)C(=O)C[C@@H](C(=O)N2CCCC2)NC(=O)[C@H](Cc2c[nH]c3ccccc23)NC(=O)[C@H](CC(N)=O)NC(=O)[C@H](Cc2ccc(O)cc2)NC(=O)[C@H](Cc2c[nH]c3ccccc23)NC1=O
B4: PP17 (peptide)
peptide: XDIWFDYWDWD
HELM: PEPTIDE1{[meA].D.I.W.F.D.Y.W.D.W.D.[C1CCN([*:1])C1]}$PEPTIDE1,PEPTIDE1,1:R1-11:R3$$$V2.0
SMILES: CC[C@H](C)[C@@H]1NC(=O)[C@H](CC(=O)O)NC(=O)[C@H](C)N(C)C(=O)C[C@@H](C(=O)N2CCCC2)NC(=O)[C@H](Cc2c[nH]c3ccccc23)NC(=O)[C@H](CC(=O)O)NC(=O)[C@H](Cc2c[nH]c3ccccc23)NC(=O)[C@H](Cc2ccc(O)cc2)NC(=O)[C@H](CC(=O)O)NC(=O)[C@H](Cc2ccccc2)NC(=O)[C@H](Cc2c[nH]c3ccccc23)NC1=O
B5: PP18 (peptide)
peptide: XDIWFDYWDYD
HELM: PEPTIDE1{[meA].D.I.W.F.D.Y.W.D.Y.D.[C1CCN([*:1])C1]}$PEPTIDE1,PEPTIDE1,1:R1-11:R3$$$V2.0
SMILES: CC[C@H](C)[C@@H]1NC(=O)[C@H](CC(=O)O)NC(=O)[C@H](C)N(C)C(=O)C[C@@H](C(=O)N2CCCC2)NC(=O)[C@H](Cc2ccc(O)cc2)NC(=O)[C@H](CC(=O)O)NC(=O)[C@H](Cc2c[nH]c3ccccc23)NC(=O)[C@H](Cc2ccc(O)cc2)NC(=O)[C@H](CC(=O)O)NC(=O)[C@H](Cc2ccccc2)NC(=O)[C@H](Cc2c[nH]c3ccccc23)NC1=O
B6: PP20 (peptide)
peptide: XKFWIHHSFED
HELM: PEPTIDE1{[meA].K.F.W.I.H.H.S.F.E.D.[C1CCN([*:1])C1]}$PEPTIDE1,PEPTIDE1,1:R1-11:R3$$$V2.0
SMILES: CC[C@H](C)[C@@H]1NC(=O)[C@H](Cc2c[nH]c3ccccc23)NC(=O)[C@H](Cc2ccccc2)NC(=O)[C@H](CCCCN)NC(=O)[C@H](C)N(C)C(=O)C[C@@H](C(=O)N2CCCC2)NC(=O)[C@H](CCC(=O)O)NC(=O)[C@H](Cc2ccccc2)NC(=O)[C@H](CO)NC(=O)[C@H](Cc2c[nH]cn2)NC(=O)[C@H](Cc2c[nH]cn2)NC1=O

Positions of bridges follow the written chain, without caps; N, C: chain ends. Non-standard residues stand in square brackets, D forms with d. *: point of attachment. Pyrrolidide = C1CCN(*)C1; dNMeA = CN[C@H](C)C(=O)O

One assay addresses T1, C-terminal human Regnase-1 (amino acids 301 to 599) with N-terminal FLAG tag and C-terminal BirA recognition … (human, UniProt Q5D1E8 301-599).
T1 sequence: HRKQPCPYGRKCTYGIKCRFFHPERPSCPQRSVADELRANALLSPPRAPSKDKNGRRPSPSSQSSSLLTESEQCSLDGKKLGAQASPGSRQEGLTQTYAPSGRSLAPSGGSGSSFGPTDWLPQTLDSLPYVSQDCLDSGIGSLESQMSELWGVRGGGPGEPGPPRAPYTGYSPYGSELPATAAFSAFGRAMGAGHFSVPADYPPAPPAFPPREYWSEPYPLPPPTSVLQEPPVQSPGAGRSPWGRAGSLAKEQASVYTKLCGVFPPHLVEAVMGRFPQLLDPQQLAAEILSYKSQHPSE
Nature of the assay: cell-based or functional assay.
On to B1, for which the “50% inhibition concentration, Regnase-1 phosphorylation by IKKβ (AlphaScreen)” value came to 37.2 µM.
The same measure, in the same setting: next, B2: 31 µM.
As to B3, the “50% inhibition concentration, Regnase-1 phosphorylation by IKKβ (AlphaScreen)” value turned out to be 10.1 µM.
B4: the “50% inhibition concentration, Regnase-1 phosphorylation by IKKβ (AlphaScreen)” value was determined as 0.7 µM.
The same measure, in the same setting: next, B5: 0.5 µM.
For B6, the “50% inhibition concentration, Regnase-1 phosphorylation by IKKβ (AlphaScreen)” value was more than 62.1 µM.
For the molecule [dNMeA]PTSSWYKIWD-Pyrrolidide (lactam N-11) [PP23], the “50% inhibition concentration, Regnase-1 phosphorylation by IKKβ (AlphaScreen)” value is more than 62.1 µM.

The target of the next assay is T2, full-length human Regnase-1 with a FLAG tag on the N-terminal side and a biotin ligase BirA recognition … (human, UniProt Q5D1E8 1-599, biotinylated at the BirA recognition sequence when required).
T2 sequence: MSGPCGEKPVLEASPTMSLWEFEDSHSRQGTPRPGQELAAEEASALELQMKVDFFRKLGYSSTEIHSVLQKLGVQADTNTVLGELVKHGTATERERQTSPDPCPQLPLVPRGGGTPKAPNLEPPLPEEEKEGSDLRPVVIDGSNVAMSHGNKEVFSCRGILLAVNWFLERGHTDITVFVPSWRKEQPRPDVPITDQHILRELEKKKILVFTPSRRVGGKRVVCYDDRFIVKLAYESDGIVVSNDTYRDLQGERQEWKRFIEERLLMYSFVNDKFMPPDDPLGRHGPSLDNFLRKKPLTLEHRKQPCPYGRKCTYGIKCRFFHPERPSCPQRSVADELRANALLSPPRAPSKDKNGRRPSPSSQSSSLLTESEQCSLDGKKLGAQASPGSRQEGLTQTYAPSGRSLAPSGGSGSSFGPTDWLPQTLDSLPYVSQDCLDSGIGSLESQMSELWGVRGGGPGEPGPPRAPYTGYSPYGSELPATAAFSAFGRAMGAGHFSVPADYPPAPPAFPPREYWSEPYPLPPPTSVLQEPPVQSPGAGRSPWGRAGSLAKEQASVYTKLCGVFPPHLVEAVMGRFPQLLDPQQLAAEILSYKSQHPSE
Description: cell-based or functional assay.
Consider B1, for which the “50% inhibition concentration, Regnase-1 phosphorylation by IKKβ (AlphaScreen)” value is 19.6 µM.
As for B2, the “50% inhibition concentration, Regnase-1 phosphorylation by IKKβ (AlphaScreen)” value came out at 15 µM.
B3: the “50% inhibition concentration, Regnase-1 phosphorylation by IKKβ (AlphaScreen)” value was determined as 5.4 µM.
B4: the “50% inhibition concentration, Regnase-1 phosphorylation by IKKβ (AlphaScreen)” value was 0.5 µM.
On to B5, for which the “50% inhibition concentration, Regnase-1 phosphorylation by IKKβ (AlphaScreen)” value amounted to 0.4 µM.
As to B6, the “50% inhibition concentration, Regnase-1 phosphorylation by IKKβ (AlphaScreen)” value is 24.7 µM.
In the case of [dNMeA]PTSSWYKIWD-Pyrrolidide (lactam N-11) [PP23], the “50% inhibition concentration, Regnase-1 phosphorylation by IKKβ (AlphaScreen)” value was 25.6 µM.

Another assay concerns the target T3, C-terminal domain-deleted human Regnase-1 (amino acids 1 to 546) with N-terminal FLAG tag and C-terminal BirA … (human, UniProt Q5D1E8 1-546).
T3 sequence: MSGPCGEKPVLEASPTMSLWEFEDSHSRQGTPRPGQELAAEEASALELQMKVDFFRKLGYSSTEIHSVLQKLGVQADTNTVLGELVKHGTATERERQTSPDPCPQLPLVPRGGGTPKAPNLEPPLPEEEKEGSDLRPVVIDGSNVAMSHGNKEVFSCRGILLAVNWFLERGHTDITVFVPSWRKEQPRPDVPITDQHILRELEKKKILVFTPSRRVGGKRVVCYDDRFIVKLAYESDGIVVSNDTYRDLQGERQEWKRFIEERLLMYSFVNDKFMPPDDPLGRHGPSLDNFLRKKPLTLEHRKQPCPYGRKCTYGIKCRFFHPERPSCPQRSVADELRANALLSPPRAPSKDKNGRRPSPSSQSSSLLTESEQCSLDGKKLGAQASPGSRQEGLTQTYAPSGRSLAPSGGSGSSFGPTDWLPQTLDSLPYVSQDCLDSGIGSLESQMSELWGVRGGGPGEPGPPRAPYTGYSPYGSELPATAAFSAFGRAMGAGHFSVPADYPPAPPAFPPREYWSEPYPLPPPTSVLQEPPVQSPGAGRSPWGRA
Description: cell-based or functional assay.
In the case of B1, the “50% inhibition concentration, Regnase-1 phosphorylation by IKKβ (AlphaScreen)” value turned out to be 39.3 µM.
For B2, the “50% inhibition concentration, Regnase-1 phosphorylation by IKKβ (AlphaScreen)” value is 34 µM.
Regarding B3, the “50% inhibition concentration, Regnase-1 phosphorylation by IKKβ (AlphaScreen)” value was found to be 12.6 µM.
As for B4, the “50% inhibition concentration, Regnase-1 phosphorylation by IKKβ (AlphaScreen)” value was determined as 0.3 µM.
In the case of B5, the “50% inhibition concentration, Regnase-1 phosphorylation by IKKβ (AlphaScreen)” value was 0.2 µM.
On to B6, for which the “50% inhibition concentration, Regnase-1 phosphorylation by IKKβ (AlphaScreen)” value was more than 62.1 µM.
Regarding [dNMeA]PTSSWYKIWD-Pyrrolidide (lactam N-11) [PP23], the “50% inhibition concentration, Regnase-1 phosphorylation by IKKβ (AlphaScreen)” value is more than 62.1 µM.

Another assay deals with T1, C-terminal human Regnase-1 (amino acids …). Description: cell-based or functional assay. The source holds these as a separate data set.
Regarding B1, the “50% inhibition concentration, Regnase-1 phosphorylation by TBK1 (AlphaScreen)” value worked out at 17 µM.
For the molecule B2, the “50% inhibition concentration, Regnase-1 phosphorylation by TBK1 (AlphaScreen)” value was determined as 25.8 µM.
As for B3, the “50% inhibition concentration, Regnase-1 phosphorylation by TBK1 (AlphaScreen)” value amounted to 5.8 µM.
Regarding B4, the “50% inhibition concentration, Regnase-1 phosphorylation by TBK1 (AlphaScreen)” value was less than 0.06 µM.
For the molecule B5, the “50% inhibition concentration, Regnase-1 phosphorylation by TBK1 (AlphaScreen)” value turned out to be 0.9 µM.
Consider B6, for which the “50% inhibition concentration, Regnase-1 phosphorylation by TBK1 (AlphaScreen)” value was more than 62.1 µM.
In the case of [dNMeA]PTSSWYKIWD-Pyrrolidide (lactam N-11) [PP23], the “50% inhibition concentration, Regnase-1 phosphorylation by TBK1 (AlphaScreen)” value was 30.7 µM.

In a further assay the target is T2, full-length human Regnase-1 with a FLAG …. Nature of the assay: cell-based or functional assay. The source holds these as a separate data set.
As to B1, the “50% inhibition concentration, Regnase-1 phosphorylation by TBK1 (AlphaScreen)” value was 13.5 µM.
As for B2, the “50% inhibition concentration, Regnase-1 phosphorylation by TBK1 (AlphaScreen)” value turned out to be 24.3 µM.
Turning to B3, the “50% inhibition concentration, Regnase-1 phosphorylation by TBK1 (AlphaScreen)” value amounted to 3.7 µM.
For B4, the “50% inhibition concentration, Regnase-1 phosphorylation by TBK1 (AlphaScreen)” value was less than 0.06 µM.
As for B5, the “50% inhibition concentration, Regnase-1 phosphorylation by TBK1 (AlphaScreen)” value is 0.6 µM.
For the molecule B6, the “50% inhibition concentration, Regnase-1 phosphorylation by TBK1 (AlphaScreen)” value is 38.5 µM.
Consider [dNMeA]PTSSWYKIWD-Pyrrolidide (lactam N-11) [PP23], for which the “50% inhibition concentration, Regnase-1 phosphorylation by TBK1 (AlphaScreen)” value came out at 18.8 µM.

A further assay deals with T3, C-terminal domain-deleted human …. Description: cell-based or functional assay. The source holds these as a separate data set.
For B1, the “50% inhibition concentration, Regnase-1 phosphorylation by TBK1 (AlphaScreen)” value was 11.7 µM.
As for B2, the “50% inhibition concentration, Regnase-1 phosphorylation by TBK1 (AlphaScreen)” value came to 22.8 µM.
On the same count and under the same terms, next, B3: 4.6 µM; B4: 0.3 µM; B5: 1.8 µM.
Same read-out and setting: next, B6: more than 62.1 µM; [dNMeA]PTSSWYKIWD-Pyrrolidide (lactam N-11) [PP23]: 29.7 µM.

(Values after patent US20250018014A1, “METHOD FOR TREATING AND/OR PREVENTING REGNASE-1-RELATED DISEASE” (OSAKA UNIVERSITY, priority 2018, published 2025).)
